Laboratory results: US7052906

Experiments:
[1] = molecular target: CD33 on HL60 cells (UniProt P20138); test: cell-based or functional assay
[2] = molecular target: soluble CD33 (UniProt P20138); test: cell-based or functional assay

| Substance | IL-2 production, cell surface-expressed antigen with respect to soluble antigen [1] | IL-2 production, change against the CD28 transmembrane receptor (fold decrease) [2] | IL-2 production, change against the CD28 transmembrane receptor (fold increase) [1] |
| --- | --- | --- | --- |
| P67scFv/h.CD28/CD28Tm/TCRζ receptor (from UniProt P10747 118-134; P10747 135-161; P20963 31-142) | > 2 fold deficit |  |  |
| P67scFv/h.CD28/Tm24/TCRζ chimeric receptor (from UniProt P10747 118-134; P20963 31-142) | 2 fold excess |  |  |
| P67scFv/h.CD28/CD28Tm/FcRγ chimeric receptor (from UniProt P10747 118-134; P10747 135-161; P30273 45-86) | 3 fold deficit |  |  |
| P67scFv/h.CD28/Tm31/FcRγ chimeric receptor (from UniProt P10747 118-134; P30273 45-86) | 5 fold excess | < 3 | > 5 |
| P67scFv/h.CD28/Tm24/FcRγ chimeric receptor (from UniProt P10747 118-134; P30273 45-86) | 5 fold excess | < 3 | > 5 |
